In patent US20170343556A1 (VENTANA MEDICAL SYSTEMS, published 2017):

Target: T1, human PD-L1 (Programmed death ligand-1) (human, UniProt Q9NZQ7 19-290)
T1 construct: whole, on cells; Endogenous PD-L1 in fixed tissue sections, detected by immunohistochemistry; No recombinant construct was used; also called B7-H1; PDCD1L1
Experiment: immunohistochemistry on FFPE tissue sections, OptiView DAB detection
Procedure: VENTANA PD-L1 (SP263) is a rabbit monoclonal primary antibody which binds to PD-L1 in paraffin-embedded tissue sections. The specific antibody can be localized using a haptenated secondary antibody followed by a multimer anti-hapten-HRP conjugate (OptiView DAB IHC Detection Kit, Cat. No. 760-700). The specific antibody-enzyme complex is then visualized with a precipitating enzyme reaction product. Each step is incubated for a precise time and temperature. At the end of each incubation step, the VENTANA BENCHMARK automated slide stainer washes the sections to stop the reaction and to remove unbound material that would hinder the desired reaction in subsequent steps. It also applies LCS (Cat. No. 650-210/Cat. No. 650-010), which minimizes evaporation of the aqueous reagents from the specimen slide. In addition to staining with VENTANA PD-L1 (SP263), a second slide is stained with a rabbit monoclonal negative control Ig (Cat. No. 790-4795) to assess background staining. [0113] IB. Specimen Preparation

T1 sequence (Q9NZQ7 19-290): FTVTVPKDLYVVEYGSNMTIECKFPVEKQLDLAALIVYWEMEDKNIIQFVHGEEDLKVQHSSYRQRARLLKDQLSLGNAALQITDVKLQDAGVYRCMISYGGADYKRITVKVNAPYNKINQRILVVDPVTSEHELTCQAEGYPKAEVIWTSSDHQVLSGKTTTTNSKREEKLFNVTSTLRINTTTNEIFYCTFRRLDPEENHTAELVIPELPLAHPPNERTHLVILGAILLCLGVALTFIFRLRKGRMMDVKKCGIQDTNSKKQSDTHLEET

B1: VENTANA PD-L1 (SP263) Rabbit Monoclonal Antibody (antibody, V domains shown)
VH: QSLEESGGRLVTPGTPLTLTCTASGFSLSNHAISWVRQAPGKGLEWIGTINSDTHTYYATWPKGRFTISKTSSTTVDLKMTSPTTEDTATYFCARRIFSSSNIWGPGTLVTVSS
VL: AIVMTQTSSPVSAVVGGTVAINCQASQSIYNNNWLSWFQQKPGQPPKLLIYLASTLASGVPSRFKGSGSGTQFTLTISDVVCDDAATYYCIGGESSNNDGIAFGGGTEVVVK
notes: Rabbit monoclonal primary antibody with a kappa light chain; also called SP263 antibody; anti-PD-L1
Does B1 bind?
Result: binds
